{"source": "paper doi:10.1101/2024.01.10.575016", "about": "“Cell Cycle Regulation has Shaped Budding Yeast Replication Origin Structure and Function” (bioRxiv, 2024)", "binders": {"B1": {"name": "Mcm7 (natural protein, budding yeast)", "chain": "MSAALPSIQLPVDYNNLFNEITDFLVTFKQDTLSSDATRNENEDENLDAENIEQHLLEKGPKYMAMLQKVANRELNSVIIDLDDILQYQNEKFLQGTQADDLVSAIQQNANHFTELFCRAIDNNMPLPTKEIDYKDDVLDVILNQRRLRNERMLSDRTNEIRSENLMDTTMDPPSSMNDALREVVEDETELFPPNLTRRYFLYFKPLSQNCARRYRKKAISSKPLSVRQIKGDFLGQLITVRGIITRVSDVKPAVEVIAYTCDQCGYEVFQEVNSRTFTPLSECTSEECSQNQTKGQLFMSTRASKFSAFQECKIQELSQQVPVGHIPRSLNIHVNGTLVRSLSPGDIVDVTGIFLPAPYTGFKALKAGLLTETYLEAQFVRQHKKKFASFSLTSDVEERVMELITSGDVYNRLAKSIAPEIYGNLDVKKALLLLLVGGVDKRVGDGMKIRGDINVCLMGDPGVAKSQLLKAICKISPRGVYTTGKGSSGVGLTAAVMKDPVTDEMILEGGALVLADNGICCIDEFDKMDESDRTAIHEVMEQQTISISKAGINTTLNARTSILAAANPLYGRYNPRLSPLDNINLPAALLSRFDILFLMLDIPSRDDDEKLAEHVTYVHMHNKQPDLDFTPVEPSKMREYIAYAKTKRPVMSEAVNDYVVQAYIRLRQDSKREMDSKFSFGQATPRTLLGIIRLSQALAKLRLADMVDIDDVEEALRLVRVSKESLYQETNKSKEDESPTTKIFTIIKKMLQETGKNTLSYENIVKTVRLRGFTMLQLSNCIQEYSYLNVWHLINEGNTLKFVDDGTMDTDQEDSLVSTPKLAPQTTASANVSAQDSDIDLQDA", "notes": "Mcm7, budding yeast"}}, "key": {"Mcm3": {"target": "T1, Mcm3 (budding yeast, UniProt P24279 1-971)", "T1 construct": "Mcm3, budding yeast", "T1 sequence (P24279 whole entry)": "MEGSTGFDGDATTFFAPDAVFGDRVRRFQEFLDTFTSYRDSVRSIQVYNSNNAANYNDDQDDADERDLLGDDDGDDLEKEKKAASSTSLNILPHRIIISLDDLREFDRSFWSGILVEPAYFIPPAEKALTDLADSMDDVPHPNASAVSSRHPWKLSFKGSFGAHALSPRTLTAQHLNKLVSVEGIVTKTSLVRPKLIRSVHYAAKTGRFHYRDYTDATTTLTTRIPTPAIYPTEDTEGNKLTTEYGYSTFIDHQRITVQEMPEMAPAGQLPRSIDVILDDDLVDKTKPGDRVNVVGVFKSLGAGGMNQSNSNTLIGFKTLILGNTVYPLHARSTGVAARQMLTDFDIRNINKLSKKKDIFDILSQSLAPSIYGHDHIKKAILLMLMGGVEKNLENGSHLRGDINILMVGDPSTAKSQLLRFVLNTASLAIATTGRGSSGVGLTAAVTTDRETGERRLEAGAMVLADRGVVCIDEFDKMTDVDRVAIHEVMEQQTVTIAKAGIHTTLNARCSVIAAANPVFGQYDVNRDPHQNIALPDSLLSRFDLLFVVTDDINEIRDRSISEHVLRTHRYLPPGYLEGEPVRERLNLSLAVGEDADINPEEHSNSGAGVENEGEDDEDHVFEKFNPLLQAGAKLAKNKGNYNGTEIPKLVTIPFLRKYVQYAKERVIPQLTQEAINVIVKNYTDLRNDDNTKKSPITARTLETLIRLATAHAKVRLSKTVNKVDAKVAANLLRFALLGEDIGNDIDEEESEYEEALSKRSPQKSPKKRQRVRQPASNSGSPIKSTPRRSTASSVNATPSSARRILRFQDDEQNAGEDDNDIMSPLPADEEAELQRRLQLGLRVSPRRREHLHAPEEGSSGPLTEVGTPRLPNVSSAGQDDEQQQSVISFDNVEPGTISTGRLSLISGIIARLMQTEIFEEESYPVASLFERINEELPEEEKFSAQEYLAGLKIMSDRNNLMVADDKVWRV", "experiment": "cryo-EM structure; MCM loading reaction on nucleosome-flanked ARS1 DNA (15 nM) with CDK-phosphorylated Orc6-4A ORC (40 nM) and MCM-Cdt1 (80 nM), 2.2 mM ATP, 30°C 30 min; SH and DH particles from the same data", "conditions": "both partners purified"}, "Mcm4": {"target": "T2, Mcm4 (budding yeast, UniProt P30665 1-933)", "T2 construct": "Mcm4, budding yeast", "T2 sequence": "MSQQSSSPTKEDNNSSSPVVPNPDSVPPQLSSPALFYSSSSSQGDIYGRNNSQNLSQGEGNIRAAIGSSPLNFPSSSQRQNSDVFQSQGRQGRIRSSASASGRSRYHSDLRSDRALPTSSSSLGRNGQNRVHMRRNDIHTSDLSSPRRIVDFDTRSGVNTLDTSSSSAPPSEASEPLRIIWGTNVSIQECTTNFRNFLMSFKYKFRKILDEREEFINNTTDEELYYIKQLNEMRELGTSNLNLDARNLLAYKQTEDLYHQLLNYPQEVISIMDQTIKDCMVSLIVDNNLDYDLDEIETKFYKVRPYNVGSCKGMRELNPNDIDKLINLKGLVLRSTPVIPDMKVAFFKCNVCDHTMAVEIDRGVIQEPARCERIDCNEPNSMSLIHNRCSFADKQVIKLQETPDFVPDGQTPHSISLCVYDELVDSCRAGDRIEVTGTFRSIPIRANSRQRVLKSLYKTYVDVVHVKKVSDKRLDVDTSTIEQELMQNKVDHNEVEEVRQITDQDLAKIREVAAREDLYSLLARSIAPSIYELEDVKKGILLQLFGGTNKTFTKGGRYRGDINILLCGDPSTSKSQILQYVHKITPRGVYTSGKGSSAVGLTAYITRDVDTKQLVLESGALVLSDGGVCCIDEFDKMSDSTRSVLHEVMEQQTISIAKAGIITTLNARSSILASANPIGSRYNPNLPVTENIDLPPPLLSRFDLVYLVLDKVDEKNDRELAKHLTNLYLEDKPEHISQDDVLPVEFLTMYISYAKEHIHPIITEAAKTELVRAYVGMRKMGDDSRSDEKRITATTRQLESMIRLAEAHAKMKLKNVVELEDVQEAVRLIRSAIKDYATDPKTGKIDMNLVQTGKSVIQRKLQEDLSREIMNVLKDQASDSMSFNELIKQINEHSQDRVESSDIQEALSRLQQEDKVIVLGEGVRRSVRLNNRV", "experiment": "cryo-EM structure; MCM loading reaction on nucleosome-flanked ARS1 DNA (15 nM) with CDK-phosphorylated Orc6-4A ORC (40 nM) and MCM-Cdt1 (80 nM), 2.2 mM ATP, 30°C 30 min; SH and DH particles from the same data", "conditions": "both partners purified"}}, "data": [{"binder": "B1", "values": [{"measurement": "binding result", "setting": "Mcm3", "value": "binds"}, {"measurement": "binding result", "setting": "Mcm4", "value": "binds"}]}]}
